Earlier results as cited in patent US20220119510A1, “ANTI-POLYETHYLENE GLYCOL (PEG) ANTIBODY MOUSE MODEL FOR RIGOROUS ASSESSMENT OF PEG-BASED THERAPIES: ADJUVANT-FREE INDUCTION MODEL” (Northwestern University, priority 2020, published 2022).

Test system: rabbits

B1: PEGylated ovalbumin: PEGylated ovalbumin used to immunize rabbits (conjugate, UniProt P01012 2-386, looked up)
Ovalbumin: GSIGAASMEFCFDVFKELKVHHANENIFYCPIAIMSALAMVYLGAKDSTRTQINKVVRFDKLPGFGDSIEAQCGTSVNVHSSLRDILNQITKPNDVYSFSLASRLYAEERYPILPEYLQCVKELYRGGLEPINFQTAADQARELINSWVESQTNGIIRNVLQPSSVDSQTAMVLVNAIVFKGLWEKAFKDEDTQAMPFRVTEQESKPVQMMYQIGLFRVASMASEKMKILELPFASGTMSMLVLLPDEVSGLEQLESIINFEKLTEWTSSNVMEERKIKVYLPRMKMEEKYNLTSVLMAMGITDVFSSSANLSGISSAESLKISQAVHAAHAEINEAGREVVGSAEAGVDAASVSEEFRADHPFLFCIKHIATNAVLFFGRCVSP
modifications: PEGylated
notes: PEGylated ovalbumin used to immunize rabbits
In the case of B1, the “anti-PEG antibodies after immunization” value is listed as “anti-PEG antibodies were first observed”.
